For this experiment, the target named is T1, human apical domain TfR (human, UniProt P02786 198-378).
T1 construct: also called human TfR; human transferrin receptor 1 apical domain
In words: SPR (Biacore 8K), fusion captured on Protein A chip, human TfR apical domain as analyte, 1:1 Langmuir fit, monovalent. As to the method: To determine whether IDUA-Fc fusion proteins with engineered TfR binding affects the ability of the modified Fc domain to interact with human TfR, the affinity of ETV:IDUA Fusions 3, 4, and 6 (Example 1) for human TfR was measured by surface plasmon resonance (SPR) using a Biacore 8K instrument (Cytiva). Five (5) μg/mL of the IDUA-Fc fusion proteins were captured for 1 minute on Protein A-coated Biacore™ Series S CM5 sensor chip and serial 3-fold dilutions of human apical domain TfR were injected at a flow rate of 30 μL/min. Each sample was analyzed with five consecutive 60-second injections with increasing human TfR concentrations followed by a 60-second dissociation at the end of the injection cycle. After each injection, the chip was regenerated using 10 mM glycine-HCl (pH 1.5). Binding response was corrected by subtracting the RU from a flow cell capturing an irrelevant IgG at similar density A. 1:1 Languir model of simultaneous fitting of kₒₙ and koff was used for kinetics analysis using Biacore™ Insight Evaluation Software.
(In general: SPR reads the build-up and loss of mass on a sensor chip optically.)

T1 sequence (P02786 198-378 limits assumed): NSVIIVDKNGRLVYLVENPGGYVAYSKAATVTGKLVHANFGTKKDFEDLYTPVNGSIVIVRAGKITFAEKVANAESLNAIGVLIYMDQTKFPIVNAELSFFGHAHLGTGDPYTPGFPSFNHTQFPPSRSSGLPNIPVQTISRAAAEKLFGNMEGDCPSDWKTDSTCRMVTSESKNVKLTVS

B1: ETV:IDUA Fusion 3 (Fc fusion)
chain 1: DKTHTCPPCPAPEAAGGPSVFLFPPKPKDTLMISRTPEVTCVVVDVSHEDPEVKFNWYVDGVEVHNAKTKPREEQYNSTYRVVSVLTVLHQDWLNGKEYKCKVSNKALSAPIEKTISKAKGQPREPQVYTLPPSRDELTKNQVSLWCLVKGFYPSDIAVEWESYGTEWANYKTTPPVLDSDGSFFLYSKLTVTKEEWQQGFVFSCSVMHEALHNHYTQKSLSLSPGK
chain 2: EAPHLVQVDAARALWPLRRFWRSTGFCPPLPHSQADQYVLSWDQQLNLAYVGAVPHRGIKQVRTHWLLELVTTRGSTGRGLSYNFTHLDGYLDLLRENQLLPGFELMGSASGHFTDFEDKQQVFEWKDLVSSLARRYIGRYGLAHVSKWNFETWNEPDHHDFDNVSMTMQGFLNYYDACSEGLRAASPALRLGGPGDSFHTPPRSPLSWGLLRHCHDGTNFFTGEAGVRLDYISLHRKGARSSISILEQEKVVAQQIRQLFPKFADTPIYNDEADPLVGWSLPQPWRADVTYAAMVVKVIAQHQNLLLANTTSAFPYALLSNDNAFLSYHPHPFAQRTLTARFQVNNTRPPHVQLLRKPVLTAMGLLALLDEEQLWAEVSQAGTVLDSNHTVGVLASAHRPQGPADAWRAAVLIYASDDTRAHPNRSVAVTLRLRGVPPGPGLVYVTRYLDNGLCSPDGEWRRLGRPVFPTAEQFRRMRAAEDPVAAAPRPLPAGGRLTLRPALRLPSLLLVHVCARPEKPPGQVTRLRALPLTQGQLVLVWSDEHVGSKCLWTYEIQFSQDGKAYTPVSRKPSTFNLFVFSPDTGAVSGSYRVRALDYWARPGPFSDPVPYLEVPVPRGPPSPGNPGGGGSDKTHTCPPCPAPEAAGGPSVFLFPPKPKDTLMISRTPEVTCVVVDVSHEDPEVKFNWYVDGVEVHNAKTKPREEQYNSTYRVVSVLTVLHQDWLNGKEYKCKVSNKALSAPIEKTISKAKGQPREPQVYTLPPSRDELTKNQVSLSCAVKGFYPSDIAVEWESNGQPENNYKTTPPVLDSDGSFFLVSKLTVDKSRWQQGNVFSCSVMHEALHNHYTQKSLSLSPGK
notes: Heterodimer of the two chains; also called third N-terminal monozyme IDUA-Fc fusion protein
By Kd is commonly meant a measure of binding affinity in units of concentration. With B1, binding was put at a Kd of 340 nM.

B2: ETV:IDUA Fusion 4 (Fc fusion)
chain 1: B1 chain 1
chain 2: EAPHLVQVDAARALWPLRRFWRSTGFCPPLPHSQADQYVLSWDQQLNLAYVGAVPHRGIKQVRTHWLLELVTTRGSTGRGLSYNFTHLDGYLDLLRENQLLPGFELMGSASGHFTDFEDKQQVFEWKDLVSSLARRYIGRYGLAHVSKWNFETWNEPDHHDFDNVSMTMQGFLNYYDACSEGLRAASPALRLGGPGDSFHTPPRSPLSWGLLRHCHDGTNFFTGEAGVRLDYISLHRKGARSSISILEQEKVVAQQIRQLFPKFADTPIYNDEADPLVGWSLPQPWRADVTYAAMVVKVIAQHQNLLLANTTSAFPYALLSNDNAFLSYHPHPFAQRTLTARFQVNNTRPPHVQLLRKPVLTAMGLLALLDEEQLWAEVSQAGTVLDSNHTVGVLASAHRPQGPADAWRAAVLIYASDDTRAHPNRSVAVTLRLRGVPPGPGLVYVTRYLDNGLCSPDGEWRRLGRPVFPTAEQFRRMRAAEDPVAAAPRPLPAGGRLTLRPALRLPSLLLVHVCARPEKPPGQVTRLRALPLTQGQLVLVWSDEHVGSKCLWTYEIQFSQDGKAYTPVSRKPSTFNLFVFSPDTGAVSGSYRVRALDYWARPGPFSDPVPYLEVPVGGGGSDKTHTCPPCPAPEAAGGPSVFLFPPKPKDTLMISRTPEVTCVVVDVSHEDPEVKFNWYVDGVEVHNAKTKPREEQYNSTYRVVSVLTVLHQDWLNGKEYKCKVSNKALSAPIEKTISKAKGQPREPQVYTLPPSRDELTKNQVSLSCAVKGFYPSDIAVEWESNGQPENNYKTTPPVLDSDGSFFLVSKLTVDKSRWQQGNVFSCSVMHEALHNHYTQKSLSLSPGK
notes: Heterodimer of the two chains; also called fourth N-terminal monozyme IDUA-Fc fusion protein
Molecule B2 returned an equilibrium dissociation constant (Kd) of 355 nM.

B3: ETV:IDUA Fusion 6 (Fc fusion)
chain 1: B1 chain 1
chain 2: DKTHTCPPCPAPEAAGGPSVFLFPPKPKDTLMISRTPEVTCVVVDVSHEDPEVKFNWYVDGVEVHNAKTKPREEQYNSTYRVVSVLTVLHQDWLNGKEYKCKVSNKALSAPIEKTISKAKGQPREPQVYTLPPSRDELTKNQVSLSCAVKGFYPSDIAVEWESNGQPENNYKTTPPVLDSDGSFFLVSKLTVDKSRWQQGNVFSCSVMHEALHNHYTQKSLSLSPGKGGGGSEAPHLVQVDAARALWPLRRFWRSTGFCPPLPHSQADQYVLSWDQQLNLAYVGAVPHRGIKQVRTHWLLELVTTRGSTGRGLSYNFTHLDGYLDLLRENQLLPGFELMGSASGHFTDFEDKQQVFEWKDLVSSLARRYIGRYGLAHVSKWNFETWNEPDHHDFDNVSMTMQGFLNYYDACSEGLRAASPALRLGGPGDSFHTPPRSPLSWGLLRHCHDGTNFFTGEAGVRLDYISLHRKGARSSISILEQEKVVAQQIRQLFPKFADTPIYNDEADPLVGWSLPQPWRADVTYAAMVVKVIAQHQNLLLANTTSAFPYALLSNDNAFLSYHPHPFAQRTLTARFQVNNTRPPHVQLLRKPVLTAMGLLALLDEEQLWAEVSQAGTVLDSNHTVGVLASAHRPQGPADAWRAAVLIYASDDTRAHPNRSVAVTLRLRGVPPGPGLVYVTRYLDNGLCSPDGEWRRLGRPVFPTAEQFRRMRAAEDPVAAAPRPLPAGGRLTLRPALRLPSLLLVHVCARPEKPPGQVTRLRALPLTQGQLVLVWSDEHVGSKCLWTYEIQFSQDGKAYTPVSRKPSTFNLFVFSPDTGAVSGSYRVRALDYWARPGPFSDPVPYLEVPVPRGPPSPGNP
notes: Heterodimer of the two chains; also called C-terminal monozyme IDUA-Fc fusion protein
As to B3, the Kd is 200 nM.

(Values after patent US20250136963A1 (DENALI THERAPEUTICS, published 2025).)
